The record followed here is patent US20030208060A1.

For test [1], the target named is triglyceride-rich lipoproteins. Nature of the test: co-incubation with TGRLP, cell binding and ligand blots.
Test [2] has as its target trypsinized VLDL Sf100-400, devoid of apoE (tryp-VLDL) (human) (UniProt P04114). Description: inhibition of 125I-tryp-VLDL1 binding to THP-1 macrophages, 4 °C, LpL 1.6 µg/ml.
For test [3], the target named is trypsinized VLDL2 (tryp-VLDL2) (human) (UniProt P04114). Description: inhibition of 125I-tryp-VLDL2 binding to THP-1 macrophages, 4 °C, LpL 1.0 µg/ml.

B1: lipoprotein lipase (enzyme, UniProt P06858 28-475, looked up, species assumed)
Lipoprotein lipase: ADQRRDFIDIESKFALRTPEDTAEDTCHLIPGVAESVATCHFNHSSKTFMVIHGWTVTGMYESWVPKLVAALYKREPDSNVIVVDWLSRAQEHYPVSAGYTKLVGQDVARFINWMEEEFNYPLDNVHLLGYSLGAHAAGIAGSLTNKKVNRITGLDPAGPNFEYAEAPSRLSPDDADFVDVLHTFTRGSPGRSIGIQKPVGHVDIYPNGGTFQPGCNIGEAIRVIAERGLGDVDQLVKCSHERSIHLFIDSLLNEENPSKAYRCSSKEAFEKGLCLSCRKNRCNNLGYEINKVRAKRSSKMYLKTRSQMPYKVFHYQVKIHFSGTESETHTNQAFEISLYGTVAESENIPFTLPEVSTNKTYSFLIYTEVDIGELLMLKLKWKSDSYFSWSDWWSSPGFAIQKIRVKAGETQKKVIFCSREKVSHLQKGKAPAVFVKCHDKSLNKKSG
Turning to B1, the percent inhibition of specific binding in test [1] was found to be 25%. Moreover, the Percent Inhibition in test [2] amounted to 26%; in test [3], 17%.
